Experimental findings from US20250320303A1 (SHENGHE CHINA BIOPHARMACEUTICAL, published 2025) are described below.

The target of assay [1] is T1, human W3785-hProl.ECD.His (Human-TNFR2-His) protein (human, UniProt P20333 23-257).
T1 construct: extracellular domain; not shown: His tag
T1 sequence (looked up): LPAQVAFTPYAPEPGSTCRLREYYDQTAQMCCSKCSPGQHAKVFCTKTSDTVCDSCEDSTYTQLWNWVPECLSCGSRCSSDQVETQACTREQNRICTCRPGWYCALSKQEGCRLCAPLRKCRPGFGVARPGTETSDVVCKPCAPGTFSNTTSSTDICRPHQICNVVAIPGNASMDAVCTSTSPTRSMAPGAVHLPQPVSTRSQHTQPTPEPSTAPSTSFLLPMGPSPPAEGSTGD
In words: indirect ELISA on coated Human-TNFR2-His. As to the method: (1) Coating: Human-TNFR2-His was diluted to 0.5 μg/mL with coating solution (1×PBS, pH 7.4), and coated into a 96-well ELISA plate at 100 μL/well at 4° C. overnight. The coating solution was poured off, and the plate was washed with 1×PBST at 300 μL per well, washed with a plate cleaning instrument for 4 times, and patted dry on sheet paper. [0184] (2) Blocking: it was blocked with 3% non-fat dry milk at 300 μL/well, and incubated at 37° C. for 1 h. The blocking solution was poured off, washed by a plate cleaning instrument for 4 times, and patted dry on sheet paper. [0185] (3) Sample dilution: the reference product and the test product were diluted with 3% non-fat dry milk to 10 μg/mL, and this was used as the initial concentration for 3-fold dilution with a total of 11 gradients of dilution, and another one blank well was set up, and only diluent was added. It was incubated at 100 μL/well at 37° C. for 1 h. Liquid in the wells was discarded, washed by a plate cleaning instrument for 4 times, and patted dry on the sheet paper. [0186] (4) Addition of enzyme-labeled secondary antibody: Peroxidase-conjugated AffiniPure F(ab′)2 Fragment Goat Anti-Human IgG was diluted with 3% non-fat dry milk at 1:20,000. It was incubated at 100 μL/well at 37° C. for 1 h. It was washed by a plate cleaning instrument for 6 times and patted dry on sheet paper. […] (5) Color development: TMB color development solution was added at 100 μL/well and wrapped with aluminium foil, and the color was developed at 37° C. without light for 8 min. [0188] (6) Termination of color development: terminal solution 1 M HCl was added to terminate the color development reaction at 100 μL/well. [0189] (7) Reading at 450 nm on the enzyme labeler. [0190]
A general note: In an ELISA, binding on a coated surface is turned into a signal by an enzyme label.

The target in assay [2] is T1, human W3785-hProl.ECD.His …. In words: BLI (Octet Red96e), antibody on AHC sensor, Human-TNFR2-His in solution, multiple concentrations. On the technique in general: In BLI a coated tip is dipped into the sample, and binding shifts an interference pattern.

B1: Antibody 21 (antibody, V domains shown)
VH: EVQLVESGGGLVKPGGSLRLSCAASGFTFSNAWMGWVRQAPEKGLEWVGQIKDKSNNYPTYYAESVKGRFTISRDDSKNTLYLQMNSLKTEDTAVYYCTTYGDFFDYWGQGTLVTVSS
VL: DIQMTQSPSSLSASVGDRVTITCRASEDIYNALAWYQQKPGKVPKLLLYNANSLHTGVPSRFSGSGSGTDYTLTISSLQPEDFATYFCQQYYDHPLTFGQGTKLEIK
notes: detected with anti-human IgG and captured on AHC sensors
What is called EC50 is the concentration giving half of the maximal effect. A higher EC50 goes with a need for much substance. The term Kd denotes the concentration at which binding is half-saturated. The term koff denotes the rate constant with which the complex falls apart. Low values mean a long-lived complex, high ones a short-lived complex. A word on the kon: it is a measure of how fast the partners come together. A lower kon goes with slow association. The molecule B1 registered an EC50 in assay [1] of 0.0147 µg/mL. Further, in assay [2], the affinity, expressed as Kd, was 0.177 nM; the off-rate (koff) worked out at 0.000145 s⁻¹; the on-rate (kon) was 821000 M⁻¹ s⁻¹.

B2: Antibody 12 (antibody, V domains shown)
VH: QVQLVQSGAEVKKPGASVKVSCKASGYTFTDYIIHWVRQAPGQGLEWMGWIDPDYGNTDYADKFKKRVTMTADTSISTAFMELSRLRSDDTAVYYCARDDGSPLVMDAWGQGTLVTVSS
VL: DIQMTQSPSSLSASVGDRVTITCQGSQNIDNYLAWFQQKPGKAPKLLIYSTYSLQTGVPSRFSGSRSGTDFTLTISSLQPEDFATYFCFQYNNGYMFGGGTKLELK
notes: as for B1
The molecule B2 showed an EC50 in assay [1] of 0.0135 µg/mL. For the same molecule, in assay [2], the equilibrium dissociation constant (Kd) amounted to 0.0863 nM, the koff was found to be 0.000102 s⁻¹ and the kon was found to be 1.21e+06 M⁻¹ s⁻¹.

B3: Antibody 14 (antibody, V domains shown)
VH: QVQLVQSGAEVKKPGASVKVSCKASGYTFTDYIIHWVRQAPGQGLEWMGWIDPDYGNTDYADKFKKRVTMTADTSISTAFMELSRLRSDDTAVYYCARDDASPLVMDAWGQGTLVTVSS
VL: DIQMTQSPSSLSASVGDRVTITCNGSQNIDNYLAWFQQKPGKAPKLLIYSTYSLQTGVPSRFSGSRSGTDFTLTISSLQPEDFATYFCFQYNNGYMFGGGTKLELK
notes: as for B1
On to B3, for which the EC50 in assay [1] turned out to be 0.00375 µg/mL. Moreover, in assay [2], the Kd worked out at 3.03 nM, the off-rate constant (koff) was 0.00282 s⁻¹ and the kon turned out to be 931000 M⁻¹ s⁻¹.

B4: Antibody 17 (antibody, V domains shown)
VH: QVQLVQSGAEVKKPGASVKVSCKASGYTFTDYIIHWVRQAPGQGLEWMGWIDPDYGNTDYADKFKKRVTMTADTSISTAFMELSRLRSDDTAVYYCARDEGSPLVMDAWGQGTLVTVSS
VL: DIQMTQSPSSLSASVGDRVTITCQGSQNIDNYLAWFQQKPGKAPKLLIYSTYSLQTGVPSRFSGSRSGTDFTLTISSLQPEDFATYFCFQYNNGYMFGGGTKLELK
notes: as for B1
For the molecule B4, the response in assay [1] was half-maximal at 0.0149 µg/mL (EC50). For the same molecule, in assay [2], binding was characterised by a dissociation constant (Kd) of 0.133 nM, the off-rate (koff) was 0.000124 s⁻¹ and the kon came to 933000 M⁻¹ s⁻¹.

B5: Antibody 13 (antibody, V domains shown)
VH: QVQLVQSGAEVKKPGASVKVSCKASGYTFTDYIIHWVRQAPGQGLEWMGWIDPDYGNTDYADKFKKRVTMTADTSISTAFMELSRLRSDDTAVYYCARDDGSPLVMDAWGQGTLVTVSS
VL: DIQMTQSPSSLSASVGDRVTITCNGAQNIDNYLAWFQQKPGKAPKLLIYSTYSLQTGVPSRFSGSRSGTDFTLTISSLQPEDFATYFCFQYNNGYMFGGGTKLELK
notes: as for B1
Regarding B5, the EC50 in assay [1] is 0.00496 µg/mL. In assay [2], this molecule displayed a Kd of 0.117 nM, a koff of 0.000134 s⁻¹ and a kon of 1.15e+06 M⁻¹ s⁻¹.

B6: Antibody 15 (antibody, V domains shown)
VH: QVQLVQSGAEVKKPGASVKVSCKASGYTFTDYIIHWVRQAPGQGLEWMGWIDPDYGNTDYADKFKKRVTMTADTSISTAFMELSRLRSDDTAVYYCARDDASPLVMDAWGQGTLVTVSS
VL: DIQMTQSPSSLSASVGDRVTITCQGSQNIDNYLAWFQQKPGKAPKLLIYSTYSLQTGVPSRFSGSRSGTDFTLTISSLQPEDFATYFCFQYNNGYMFGGGTKLELK
notes: as for B1
In assay [1], B6 gave an EC50 of 0.0032 µg/mL. In assay [2], this molecule came in with a Kd of 2.06 nM.

B7: Antibody 16 (antibody, V domains shown)
VH: QVQLVQSGAEVKKPGASVKVSCKASGYTFTDYIIHWVRQAPGQGLEWMGWIDPDYGNTDYADKFKKRVTMTADTSISTAFMELSRLRSDDTAVYYCARDEGSPLVMDAWGQGTLVTVSS
VL: DIQMTQSPSSLSASVGDRVTITCNGSQNIDNYLAWFQQKPGKAPKLLIYSTYSLQTGVPSRFSGSRSGTDFTLTISSLQPEDFATYFCFQYNNGYMFGGGTKLELK
notes: as for B1
In turn, B7 registered a half-maximal effective concentration (EC50) in assay [1] of 0.0203 µg/mL. In assay [2], this molecule displayed a Kd of 0.117 nM, an off-rate (koff) of 0.000134 s⁻¹ and a kon of 1.15e+06 M⁻¹ s⁻¹.
